In patent US20170212130A1 (ROCKEFELLER UNIVERSITY, published 2017):

B1: LaG-6 (VHH)
VHH: QVQLVESGGGLVQAGGSLRLSCAASGRTFSTSAMAWFRQAPGKEREFAAGITWISSSTYYTDSVKGRFTISRDNAKNTVYLQMNSLKPEDTAVYYCAAKSEGYFGFPRVENEYPYWGQGTQVTV
B2: LaG41-LaG2 (G4S) (bispecific antibody)
single-chain fusion of two VHH: MADVQLVESGGGLVQAGGSLRLSCAASGPTGAMAWFRQAPGKEREFVGGISGSETDTYYVDSVKGRFTVDRDNVKNTVYLQMNSLKPEDTAVYYCAARRRITLFTSRTDYDFWGRGTQVTVGGGGSGGGGSGGGGSMAQVQLVESGGGLVQAGGSLRLSCAASGRTFSNYAMGWFRQAPGKEREFVAAISWTGVSTYYADSVKGRFTISRDNDKNTVYVQMNSLIPEDTAIYYCAAVRARSFSDTYSRVNEYDYWGQGTQVTV
notes: Member of the group m24; also called LaG41-LaG2 G4S Dimer
B3: LaG-21 (VHH)
VHH: QVQLVESGGGLVQAGGSLRLSCAASGPTGAMAWFRQAPGMEREFVGGISGSETDTYYADFVKGRLTVDRDNVKNTVDLQMNSLKPEDTAVYYCAARRRVTLFTSRADYDFWGQGTQVTVS
B4: LaG-42 (VHH)
VHH: DVQLVESGGGLVQAGDSLRLSCAASGPTGAMAWFHQGLGKEREFVGGISPSGDNIYYADSVKGRFTIDRDNAKNTVSLQMNSLKPEDMGVYYCAARRRVTLFTSRTDYEFWGRGTQVTVS
B5: LaG16-LaG2 (3xFLAG) (other)
single-chain fusion of two VHH (part 1 of 2): MAQVQLVESGGRLVQAGDSLRLSCAASGRTFSTSAMAWFRQAPGREREFVAAITWTVGNTILGDSVKGRFTISRDRAKNTVDLQMDNLEPEDTAVYYCSARSRGYVLSVLRSVDSYDYWGQGTQVTVS
single-chain fusion of two VHH (part 2 of 2): MAQVQLVESGGGLVQAGGSLRLSCAASGRTFSNYAMGWFRQAPGKEREFVAAISWTGVSTYYADSVKGRFTISRDNDKNTVYVQMNSLIPEDTAIYYCAAVRARSFSDTYSRVNEYDYWGQGTQVTV
notes: Member of the group m24; also called LaG16-LaG2 3xFLAG Dimer
B6: LaG-14 (VHH)
VHH: QVQLVESGGGLVQAGGSLRLSCAASGRTYSISAMGWFRQAPGKEREFVAGISRSGGTTYYADPVKGRFTISRDNAKNTVYLQMNSLKPEDTAVYYCAARARGWTTFPAREIEYDYWGQGTQVTV
B7: LaG-29 (VHH)
VHH: QVQLVESGGGLVQAGAALRLSCAASGGTFSFYNMGWFRQAPGKEREFVVSISRSGGGTAYADSVKGRFTISRDNAKNTAYLQMNSLKPEDTAVYYCAAGLRDWGREGEPHYWGQGTQVTVS
B8: LaG-43 (VHH)
VHH: DVQLVESGGGLVQPGGSLRLSCEASGGAFSTVAMGWFRQAPGKEREFVGAITWTAGSTYYADSAKGRFTISRDNAKNTVHLQMNSLKPEDTAVYYCAQRVRGFFGPLRTTPSWYEYWGQGTQVTVS
B9: LaG-37 (VHH)
VHH: QVQFVESGGGTVQDGDFLRLSCTASGDTFSNYHAGWFRQPPGREREFVAAISWTGEGTLYADSVKGQFTISRDNAKNAMYLQMNRLKPEDTAVYYCAAARSVGFTWRSSKSNDYAYWGQGTQVTV
B10: LaG-3 (VHH)
VHH: QVQLVESGGGLVQAGGSLRVSCAASGRTYSDYAMGWFRQAPGKERDFVAGISGSGGDTYYADSVKGRFTISRDNAKNTMYLQMNSLKPEDTAVYFCAARTGTVLFTSRVDYRYWGQGTQVTV
B11: LaG-27 (VHH)
VHH: DVQLVESGGGLVQAGGSLRLSCTASGLTISTYNIGWFRQAPGKEREFVGIIIRNGDTTYYADSVKGRFTISRDNAKNTVYLQMNSVKPADAAVYSCGATVRAGAAAEQYNSYIFRGQGTQVTV
B12: LaG-30 (VHH)
VHH: QVQLVESGGGLVQAGGSLRLSCAASGRTFSTSAMGWFRQAPGREREFVAAITWTVGNTIYGDSMKGRFTISRDRTKNTVDLQMDSLKPEDTAVYYCTARSRGFVLSDLRSVDSFDYKGQGTQVTVS
B13: LaG-16 (VHH)
VHH: QVQLVESGGRLVQAGDSLRLSCAASGRTFSTSAMAWFRQAPGREREFVAAITWTVGNTILGDSVKGRFTISRDRAKNTVDLQMDNLEPEDTAVYYCSARSRGYVLSVLRSVDSYDYWGQGTQVTVS
modifications: Conjugated to Alexa Fluor 568 (succinimidyl ester, on amines) in the microscopy result. The letters are unchanged.
notes: Conjugated to Alexa Fluor 568 for microscopy
B14: LaG-10 (VHH)
VHH: QVQLVESGGGLVQAGDSLQLSCAFSGGTFSTYAMGWFRQAPGKEREFVGGISRSGATTNYEDSVKGRFTISKDNTKNTVYLQLNSLKPEDTAVYYCAARNNILPVTTIDKYEYWGQGTQVTV
B15: LaG-26 (VHH)
VHH: QVQLVESGGGLVQAGASMRLSCAASGITFSLYHWVWFRQAAGREHEFVAGIIRSGGETLSADSVKDRFIISRDDAKNTLYLQMNMLQPEDTATYYCAATHRADWYSSAFREYIFRGQGTQVTVS
B16: LaM-8 (VHH)
VHH: QVQLVESGGGLVQAGGSLRLSCAVSGRPFSEYNLGWFRQAPGKEREFVARIRSSGTTVYTDSVKGRFSASRDNAKNMGYLQLNSLEPEDTAVYYCAMSRVDTDSPAFYDYWGQGTQVTVST
B17: LaM-1 (VHH)
VHH: QVQLVESGGGLVQAGDSLRLSCAASGRTFENYAMGWFRQAPGKEREFVGAVSWGGGRTYYADNVKGRFTISRDNAKKNTVYLQMNSLKPEDTAVYYCAAKSVLTIATMRVPDEYNYWGQGTQVTVS
B18: LaM-6 (VHH)
VHH: QVQLVESGGGLVQAGGSLRLSCVASGSAPSFFAMAWYRQSPGNERELVAALSSLGSTNYADSVKGRFTISMDNAKNTVYLQMNNVNAEDTAVYYCAAGDFHSCYARKSCDYWGQGTQVTVS
B19: LaM-3 (VHH)
VHH: QVQLVQSGGGLVQAGGSLRLSCAASGRTFSDIAVGWFRQTPGKEREFVAAISWSGLIINYGDSVEDRFTISRDNAKSAVYLQMNSLKPEDTAVYYCAARIGMNYYYAREIEYPYWGQGTQVTVS
B20: LaG-11 (VHH)
VHH: DVQLVESGGRSVRAGDSLRLSCLASGGTFSLYAMGWFRQAPGKEREFVAAVTWSGGSTYYTDSVKGRFSISRDNAKNTVYLQMNSLKPEDTAVYYCAVRTSGFFGSIPVTERAFDYWGQGTQVTVS
B21: LaG-19 (VHH)
VHH: QVQLVESGGGLVQAGGSLRLSCAASGPTGAMAWFRQAPGKEREFVGGISRSGTDTYYVDSVKGRFTIDRDNAKNTVYLQMNSLKPEDTAVYYCAARRSQILFTSRTDYEFWGQGTQVTVS
B22: LaG-35 (VHH)
VHH: DVQLVESGGGLVQAGGSLRLSCTVSGRTFSNYAMGWFRQAPGKEREFVAGISWTGGHTLYTDSVKGRFTISRDNAKNTVYLQMNSLKPEDTALYYCAADRAADFFAQRDEYDYWGQGTQVTVS
B23: LaG-17 (VHH)
VHH: DVQLVESGGGLVQAGGSLRLSCAASGRTISMAAMSWFRQAPGKEREFVAGISRSAGSAVHADSVKGRFTISRDNTKNTLYLQMNSLKAEDTAVYYCAVRTSGFFGSIPRTGTAFDYWGQGTQVTVS

Molecular target: T1, GFP-His6 (eGFP) (Aequorea victoria, UniProt P42212 2-238 = GFP)
T1 construct: SPR and bead assays speak only of recombinant GFP or eGFP; also called recombinant GFP; A. victoria (Av) GFP
Test: SPR, GFP immobilized

| Binder | Kd |
| --- | --- |
| B1 | 310 nM |
| B2 | 0.15 nM |
| B3 | 7 nM |
| B4 | 600 nM |
| B5 | 0.268 nM |
| B6 | 1.9 nM |
| B7 | 110 nM |
| B8 | 11 nM |
| B9 | 24 nM |
| B10 | 25 nM |
| B11 | 9.5 nM |
| B12 | 0.5 nM |
| B13 | 0.7 nM |
| B14 | 97 nM |
| B15 | 2.6 nM |

Molecular target: T2, mCherry (Discosoma)
T2 construct: Immunogen is mCherry-His6; SPR says recombinant mCherry; also called recombinant mCherry-His6; Discosoma mCherry
Test: SPR, mCherry immobilized

| Binder | Kd |
| --- | --- |
| B16 | 63 nM |
| B17 | 22 nM |
| B18 | 0.26 nM |
| B19 | 1.9 nM |

Molecular target: T1, GFP-His6 (eGFP)
Test: bead binding assay (footnote 1)

| Binder | Kd |
| --- | --- |
| B20 | 22900 nM |
| B21 | 24.6 nM |
| B22 | 23.5 nM |

Molecular target: T1, GFP-His6 (eGFP)
Test: SPR, GFP immobilized, Langmuir fit; unit inferred

| Binder | Kd |
| --- | --- |
| B23 | 48 nM |
| B1 | 310 nM |
| B6 | 1.9 nM |
| B10 | 25 nM |
| B13 | 0.69 nM |
| B14 | 97 nM |

Molecular target: T2, mCherry
Test: SPR, mCherry immobilized, Langmuir fit; unit inferred

| Binder | Kd |
| --- | --- |
| B16 | 63 nM |
| B17 | 22 nM |
| B18 | 0.26 nM |
| B19 | 1.9 nM |

Molecular target: T1, GFP-His6 (eGFP)
Test: label under gel lane; legend: in vitro Kd for GFP by SPR

| Binder | Kd |
| --- | --- |
| B8 | 13 nM |
| B20 | 22900 nM |
| B9 | 25 nM |
| B22 | 24 nM |

Molecular target: T2, mCherry
Test: label under gel lane; legend: in vitro Kd for mCherry by SPR

| Binder | Kd |
| --- | --- |
| B16 | 63 nM |
| B17 | 22 nM |
| B18 | 0.26 nM |
| B19 | 1.9 nM |

Molecular target: T1, GFP-His6 (eGFP)
Test: SPR, GFP immobilized, Langmuir fit; no unit printed [continued]

| Binder | Kd |
| --- | --- |
| B7 | 110 nM |
| B9 | 24 nM |
| B11 | 9.5 nM |
| B12 | 0.5 nM |
| B15 | 2.6 nM |

Molecular target: T1, GFP-His6 (eGFP)
Test: as above
Remark: another data set of the same source

| Binder | Kd |
| --- | --- |
| B2 | 0.15 nM |
| B5 | 0.27 nM |
| B8 | 11 nM |

Molecular target: T3, DsRed (Discosoma sp., UniProt Q9U6Y8 1-225)
T3 construct: Recombinant fluorescent protein; construct not described; also called standard DsRed; DsRed from Discosoma (Ds)
T3 sequence (Q9U6Y8 whole entry): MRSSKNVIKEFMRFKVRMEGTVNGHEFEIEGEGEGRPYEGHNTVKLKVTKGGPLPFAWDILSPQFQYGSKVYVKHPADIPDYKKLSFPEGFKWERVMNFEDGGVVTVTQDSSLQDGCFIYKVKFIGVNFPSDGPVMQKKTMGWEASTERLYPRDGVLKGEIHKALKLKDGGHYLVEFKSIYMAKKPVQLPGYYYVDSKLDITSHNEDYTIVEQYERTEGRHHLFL
Test: bead binding: nanobody-Dynabeads + fluorescent protein, eluate on SDS-PAGE

| Binder | binding result |
| --- | --- |
| B23 | no binding |
| B3 | no binding |
| B6 | no binding |
| B10 | no binding |
| B11 | no binding |
| B21 | no binding |
| B12 | no binding |
| B13 | no binding |
| B15 | no binding |

Molecular target: T1, GFP-His6 (eGFP)
Test: as above

| Binder | binding result |
| --- | --- |
| B16 | no binding |
| B17 | no binding |
| B18 | no binding |
| B19 | no binding |

Molecular target: T3, DsRed
Test: as above
Remark: another data set of the same source

| Binder | binding result |
| --- | --- |
| B16 | no binding |
| B17 | no binding |
| B18 | no binding |
